pKd: −log10 of the molar value.
Legend:
Test in all cases: IEDB peptide-MHC binding, purified MHC/competitive/radioactivity; filed as Kd, often an IC50 or EC50 that approximates it; ≥ and ≤ were set here for values at or beyond the usual limits of such assays
[1] = target: HLA-A*03:01
[2] = target: HLA-A*11:01
[3] = target: HLA-A*31:01
[4] = target: HLA-A*33:01
[5] = target: HLA-A*68:01
[6] = source organism: Vaccinia virus WR
[7] = source organism: SARS coronavirus Tor2
[8] = source organism: Mammarenavirus tacaribeense

Row | Sequence | pKd [1, 6] | pKd [2, 6] | pKd [3, 6] | pKd [4, 6] | pKd [5, 6] | pKd [1, 7] | pKd [2, 7] | pKd [3, 7] | pKd [4, 7] | pKd [5, 7] | also measured
1 | SVKYYGRSTK | 7.01 | 6.24 | 5.87 | 4.87 | 6.09 | – | – | – | – | – | –
2 | FLKEQHCQK | – | – | – | – | – | 6.71 | 4.81 | 6.10 | 6.19 | 5.88 | –
3 | DTSEKYSKGY | ≤ 4.15 | 6.05 | ≤ 4.15 | ≤ 4.15 | 6.27 | – | – | – | – | – | –
4 | QFNFNGHTY | 5.28 | 4.85 | 6.25 | ≤ 4.19 | 6.76 | – | – | – | – | – | –
5 | SLTVLFDGR | – | – | – | – | – | 5.32 | 5.12 | 6.46 | 5.60 | 5.87 | –
6 | LAMDEFIQR | – | – | – | – | – | ≤ 4.11 | 5.62 | 6.44 | 5.84 | 6.21 | –
7 | DSMDVLAEK | 6.39 | 8.76 | 6.01 | 8.74 | 9.91 | – | – | – | – | – | –
8 | NLTDTNFKK | 5.91 | 6.18 | 5.04 | 5.35 | 7.57 | – | – | – | – | – | –
9 | RVRRYQIAQY | 7.69 | ≤ 4.59 | 5.61 | ≤ 4.15 | 5.20 | – | – | – | – | – | –
10 | VALSSLVSK | 6.55 | 7.82 | 5.69 | ≤ 4.40 | 5.97 | – | – | – | – | – | –
11 | SSLVKNVNK | 6.36 | 7.57 | 5.90 | ≤ 4.11 | 5.36 | – | – | – | – | – | –
12 | NVHEHINDQK | 5.39 | 4.74 | ≤ 4.15 | ≤ 4.53 | 8.36 | – | – | – | – | – | –
13 | QFIKPVSDLY | ≤ 4.15 | ≤ 4.42 | ≤ 4.33 | ≤ 4.37 | 5.90 | – | – | – | – | – | –
14 | KSMFWDGMDY | 8.24 | 8.76 | 7.11 | ≤ 4.18 | 6.29 | – | – | – | – | – | –
15 | VTCAAYYFMK | – | – | – | – | – | 7.90 | 8.16 | 6.70 | 5.58 | 7.31 | –
16 | LALTDVEKR | ≤ 4.11 | 4.91 | 6.68 | ≤ 4.13 | 6.79 | – | – | – | – | – | –
17 | ESRPFDLIK | 5.08 | 5.88 | 4.75 | 5.47 | 7.66 | – | – | – | – | – | –
18 | FVFPLNSKVK | – | – | – | – | – | 6.79 | 6.95 | 4.89 | 4.78 | 8.06 | –
19 | TFFSTFKCY | – | – | – | – | – | 5.24 | 5.36 | 6.10 | 5.94 | 5.97 | –
20 | AFLLRHYYNK | 6.13 | 6.65 | 7.62 | 5.72 | 5.27 | – | – | – | – | – | –
21 | VCPLGLLLK | – | – | – | – | – | – | – | – | – | – | pKd [1, 8]: 5.23; pKd [2, 8]: 5.62; pKd [3, 8]: ≤ 4.58; pKd [4, 8]: ≤ 4.11; pKd [5, 8]: ≤ 4.11
22 | STGESSILR | 6.51 | 6.03 | 5.87 | 5.33 | 6.71 | – | – | – | – | – | –
23 | ISDYSAEVER | ≤ 4.63 | 5.42 | 5.76 | 5.87 | 6.64 | – | – | – | – | – | –
24 | NLLDSYFVVK | – | – | – | – | – | 5.27 | 5.73 | 5.14 | 5.34 | 5.63 | –
25 | EQLSKYVEK | 6.83 | 8.01 | 6.30 | 6.08 | 6.79 | – | – | – | – | – | –
26 | RQLFKPLTK | – | – | – | – | – | 7.04 | 6.18 | 5.62 | ≤ 4.11 | ≤ 4.11 | –
27 | SLTSLLKTHR | – | – | – | – | – | 5.84 | 5.91 | 6.98 | 6.09 | 6.16 | –
28 | PVNQFTGYLK | – | – | – | – | – | 5.27 | 6.12 | ≤ 4.15 | ≤ 4.21 | 5.65 | –
29 | SLTILDDNLY | 6.31 | 5.51 | ≤ 4.33 | 4.82 | 5.22 | – | – | – | – | – | –
30 | CAVHLIIYY | 5.00 | 6.10 | 5.31 | ≤ 4.68 | 7.61 | – | – | – | – | – | –

From the Immune Epitope Database (IEDB)
